Test results reported in patent publication US20250121087A1, “ANTIBODY-DRUG CONJUGATES COMPRISING ANTI-B7-H3 ANTIBODIES” (priority 2020, published 2025).

B1: Enoblituzumab (antibody, chains of the INN, looked up)
heavy: EVQLVESGGGLVQPGGSLRLSCAASGFTFSSFGMHWVRQAPGKGLEWVAYISSDSSAIYYADTVKGRFTISRDNAKNSLYLQMNSLRDEDTAVYYCGRGRENIYYGSRLDYWGQGTTVTVSSASTKGPSVFPLAPSSKSTSGGTAALGCLVKDYFPEPVTVSWNSGALTSGVHTFPAVLQSSGLYSLSSVVTVPSSSLGTQTYICNVNHKPSNTKVDKRVEPKSCDKTHTCPPCPAPELVGGPSVFLLPPKPKDTLMISRTPEVTCVVVDVSHEDPEVKFNWYVDGVEVHNAKTKPPEEQYNSTLRVVSVLTVLHQDWLNGKEYKCKVSNKALPAPIEKTISKAKGQPREPQVYTLPPSREEMTKNQVSLTCLVKGFYPSDIAVEWESNGQPENNYKTTPLVLDSDGSFFLYSKLTVDKSRWQQGNVFSCSVMHEALHNHYTQKSLSLSPG
light: DIQLTQSPSFLSASVGDRVTITCKASQNVDTNVAWYQQKPGKAPKALIYSASYRYSGVPSRFSGSGSGTDFTLTISSLQPEDFATYYCQQYNNYPFTFGQGTKLEIKRTVAAPSVFIFPPSDEQLKSGTASVVCLLNNFYPREAKVQWKVDNALQSGNSQESVTEQDSKDSTYSLSSTLTLSKADYEKHKVYACEVTHQGLSSPVTKSFNRGEC
B2: AB2 (antibody, V domains shown)
VH: QVQLVESGAEVKKPGASVKLSCKASGYTFSSYWMHWVRQAPGQRLEWMGEINPGNGHTNYNEKFKSRVTITVDKSASTAYMELSSLRSEDTAVYYCVADPRRPKVPTALFVYWGQGTLVTVSS
VL: DIQMTQSPSSVSASVGDRVTISCRASQGIGTWLAWYQQKPGKAPRLLIYAASSLDSGVPSRFSASGSGTDFTLTISSLQPEDFATYYCQQAINFPITFGQGTRLEIK

Assays:
[1] = molecular target: T1, B7-H3 (Homo sapiens, UniProt Q5ZPR3); conditions: Table 1, development state of B7-H3 ADC; cited from earlier work
T1 sequence (Q5ZPR3 29-534): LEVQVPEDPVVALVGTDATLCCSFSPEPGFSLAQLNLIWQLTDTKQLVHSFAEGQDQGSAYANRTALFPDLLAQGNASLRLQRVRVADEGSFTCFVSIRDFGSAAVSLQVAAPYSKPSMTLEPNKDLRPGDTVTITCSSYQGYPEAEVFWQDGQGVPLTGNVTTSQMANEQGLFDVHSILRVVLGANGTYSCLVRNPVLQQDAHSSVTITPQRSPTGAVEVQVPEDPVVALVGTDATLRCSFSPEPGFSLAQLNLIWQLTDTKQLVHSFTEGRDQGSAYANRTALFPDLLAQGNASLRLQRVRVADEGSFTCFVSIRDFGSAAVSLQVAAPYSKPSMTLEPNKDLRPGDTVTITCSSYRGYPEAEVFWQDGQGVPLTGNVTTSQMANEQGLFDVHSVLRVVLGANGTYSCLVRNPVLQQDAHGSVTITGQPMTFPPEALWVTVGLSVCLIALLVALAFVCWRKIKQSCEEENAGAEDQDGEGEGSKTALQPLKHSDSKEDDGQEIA

[2] = molecular target: T2, mouse B7-H3 (Mus musculus, UniProt Q8VE98); test: Biacore (SPR) binding kinetics, mouse B7-H3; conditions: analyte Mouse B7-H3, antibody as immobilized ligand
T2 construct: purchased Sino biological Inc
T2 sequence (Q8VE98 29-316): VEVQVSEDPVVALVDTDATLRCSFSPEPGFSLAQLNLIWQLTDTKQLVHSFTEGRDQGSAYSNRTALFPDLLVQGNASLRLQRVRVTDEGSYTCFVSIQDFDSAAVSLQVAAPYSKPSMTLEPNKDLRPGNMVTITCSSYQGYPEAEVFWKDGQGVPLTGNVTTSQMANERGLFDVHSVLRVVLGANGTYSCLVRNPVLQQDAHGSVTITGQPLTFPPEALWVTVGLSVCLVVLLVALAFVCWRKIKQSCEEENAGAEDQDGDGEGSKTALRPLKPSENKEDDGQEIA
Method: (§1) The binding affinity of the purified anti-B7-H3 monoclonal antibodies was determined by BLI-based OCTET or SPR-based Biacore. Further the binding kinetics of the antibodies binding to human, cynomolgus monkey and mouse B7-H3 antigen are shown in Table 37.
(§2) A Biacore 8K (GE Life science) instrument was used to measure the binding kinetics about several B7-H3 variants (analyte) binding to various mAbs (ligands). Antibodies were captured onto the immobilized anti-human Fc antibody (GE Life science). Anti-Fc antibodies were immobilized to approximately 7,000 RU on CM5 sensor chip using a standard amine coupling method on both active cell and reference cell. For binding kinetic measurements, the HBS-EP+ was used for running buffer (10 mM Hepes, pH7.4, 150 mM NaCl, 3 mM EDTA, 0.05% polysorbate20). Anti-B7-H3 antibodies were diluted to 0.5 ug/mL in running buffer and injected for 110 s on active cells only. After capturing ligand, various B7-H3 antigens were analyzed for 120 s and the dissociation was monitored for 600 s at a flow rate of 30 ul/min. […] Kinetic information was calculated by fitting data to a 1:1 binding model using Biacore Insight Evaluation software (GE Life Science) to determine ka (association constant), kd (dissociation constant), and KD (equilibrium dissociation constant).

[3] = molecular target: T3, human 2Ig B7-H3 (Homo sapiens, UniProt Q5ZPR3); test: Biacore (SPR) binding kinetics, human 2Ig B7-H3; conditions: analyte Human 2IgB7-H3, antibody as immobilized ligand
T3 construct: purchased Acrobiosystems
T3 sequence (Q5ZPR3 29-316 isoform Q5ZPR3-2 limits assumed): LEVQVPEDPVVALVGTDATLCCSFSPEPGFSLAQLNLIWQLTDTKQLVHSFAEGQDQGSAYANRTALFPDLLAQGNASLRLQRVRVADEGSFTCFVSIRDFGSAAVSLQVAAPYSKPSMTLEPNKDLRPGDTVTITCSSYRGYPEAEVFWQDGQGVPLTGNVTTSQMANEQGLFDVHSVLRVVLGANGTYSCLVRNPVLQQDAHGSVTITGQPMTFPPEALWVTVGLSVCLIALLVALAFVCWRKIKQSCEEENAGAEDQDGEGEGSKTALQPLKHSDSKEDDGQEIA
Method: as §1, §2

[4] = molecular target: T4, human 4Ig B7-H3 (Homo sapiens, UniProt Q5ZPR3); test: Biacore (SPR) binding kinetics, human 4Ig B7-H3; conditions: analyte Human 4IgB7-H3, antibody as immobilized ligand
T4 construct: purchased Y-Biologics Inc
T4 sequence (Q5ZPR3 29-534): T1 sequence (Q5ZPR3 29-534)
Method: as §1, §2

[5] = test system: cynomolgus monkey B7-H3; test: Biacore (SPR) binding kinetics, cynomolgus monkey B7-H3; conditions: analyte Cyno B7-H3, antibody as immobilized ligand
Method: as §1, §2

Molecule | Kd [1] | Ka [2] | Kd [2] | Ka [3] | Kd [3] | Ka [4] | Kd [4] | Ka [5] | Kd [5]
B1 | 7 nM | – | – | – | – | – | – | – | –
B2 | – | 408000 M⁻¹ s⁻¹ | 0.0193 s⁻¹ | 206000 M⁻¹ s⁻¹ | 0.00515 s⁻¹ | 446000 M⁻¹ s⁻¹ | 0.000199 s⁻¹ | 481000 M⁻¹ s⁻¹ | 0.000442 s⁻¹
